Reference: the supplement of paper PMC7877785
± gives the uncertainty stated by the source.

Assay: self-splicing fitness, log relative to wild type (ln ratio); higher = more splicing; Tetrahymena group I intron in knt gene, E. coli kanamycin selection, DiMSum; sequences stand for … in CUCUCU…GGAGGGAAAAGUUAUCAGGCAUGCACCUGGUAGCUAGUCUUUAAACCAAUAGAUUGCAUCGGUUUAAAAGGCAAGACCGUCAAAUUGCGGGAAAGGGGUCAACAGCCGUUCAGUACCAAGUCUCAGGGGAAACUUUGAGAUGGCCUUGCAAAGGGUAUGGUAAUAAGCUGACGGACAUGGUCCUAACCACGCAGCCAAGUCCUAAGUCAACAGAUCUUCUGUUGAUAUGGAUGCAGUUCACAGACUAAAUGUCGGUCGGGGAAGAUGUAUUCUUCUCAUAAGAUAUAGUCGGACCUCUCCUUAAUGGGAGCUAGCGGAUGAAGUGAUGCAACACUGGAGCCGCUGGGAACUAAUUUGUAUGCGAAAGUAUAUUGAUUAGUUUUGGAGUACUCGUGGUCG
How it was run: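 The eight P1ex-region nucleotides of an intron in the knt kanamycin-resistance gene on pET-22b(+) were all randomised and the library put into E. coli BL21(DE3). Six replicate transformations were grown overnight at 37°C or 30°C on LB agar with or without 25 μg/mL kanamycin, together with 100 μg/mL carbenicillin, 50 μM IPTG and 0.2% rhamnose. Colonies were pooled and amplicon-sequenced on an Illumina HiSeq 2500. Fitness from DiMSum is the error-weighted combination of wild-type-normalised replicate fold changes, kanamycin over none.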

Sequence | self-splicing fitness (ln) (30 °C) | self-splicing fitness (ln) (37 °C)
GAAGAGCAAUAUUACGUGAU | -3.4 ± 0.14 | -1.51 ± 0.13
GAAGAGCAAUAUUACGUUGC | -3.04 ± 0.28 | -2.25 ± 0.27
GAAUAGCAAUAUUACGAAUG | -1.42 ± 0.24 | -1.15 ± 0.28
GAAUAGCAAUAUUACGACCA | -0.287 ± 0.13 | -0.616 ± 0.13
GAAUAGCAAUAUUACGACCC | 0.178 ± 0.39 | –
GAAUAGCAAUAUUACGAGUC | -3.29 ± 0.15 | -1.4 ± 0.11
GAAUAGCAAUAUUACGAUAG | -0.707 ± 0.15 | -1.47 ± 0.22
GAAUAGCAAUAUUACGCACA | -0.518 ± 0.15 | 1.18 ± 0.18
GAAUAGCAAUAUUACGCCGU | -1.6 ± 0.1 | -0.466 ± 0.11
GAAUAGCAAUAUUACGCUGA | -2.56 ± 0.31 | -0.623 ± 0.22
GAAUAGCAAUAUUACGCUUA | -1.5 ± 0.17 | -0.146 ± 0.17
GAAUAGCAAUAUUACGGACG | -1.84 ± 0.16 | -0.471 ± 0.22
GAAUAGCAAUAUUACGGAUA | -2.36 ± 0.26 | -1.46 ± 0.21
GAAUAGCAAUAUUACGGCGC | 0.0238 ± 0.14 | 0.023 ± 0.16
GAAUAGCAAUAUUACGGUGA | -1.69 ± 0.12 | -1.36 ± 0.11
GAAUAGCAAUAUUACGUCUG | -1.85 ± 0.075 | -0.674 ± 0.082
GAAUAGCAAUAUUACGUGUG | -2.23 ± 0.07 | -1.52 ± 0.073
GAAUAGCAAUAUUACGUUGC | -4.27 ± 0.34 | -2.69 ± 0.37
GACAAGCAAUAUUACGAAUU | -1.56 ± 0.063 | -1.47 ± 0.099
GACAAGCAAUAUUACGACAG | -4.68 ± 0.22 | -2.63 ± 0.14
GACAAGCAAUAUUACGACCU | 0.335 ± 0.11 | -0.133 ± 0.12
GACAAGCAAUAUUACGAUCC | -2.7 ± 0.22 | -2.08 ± 0.34

Sequence | self-splicing fitness (ln) (30 °C) | self-splicing fitness (ln) (37 °C)
GACAAGCAAUAUUACGCAAA | -2.04 ± 0.13 | -1.81 ± 0.12
GACAAGCAAUAUUACGCAGC | – | -1.7 ± 0.22
GACAAGCAAUAUUACGCAUG | -2.33 ± 0.13 | -0.814 ± 0.14
GACAAGCAAUAUUACGCCAG | -3.1 ± 0.3 | –
GACAAGCAAUAUUACGCCUU | -1.15 ± 0.14 | -1.04 ± 0.13
GACAAGCAAUAUUACGCGCA | -0.282 ± 0.099 | -0.0559 ± 0.1
GACAAGCAAUAUUACGCGUA | -1.12 ± 0.072 | -0.683 ± 0.078
GACAAGCAAUAUUACGCGUG | -2.54 ± 0.076 | -0.344 ± 0.071
GACAAGCAAUAUUACGCUAU | -1.96 ± 0.094 | -1.17 ± 0.1
GACAAGCAAUAUUACGGACA | -1.33 ± 0.14 | -0.153 ± 0.13
GACAAGCAAUAUUACGGAGA | -2.59 ± 0.18 | -1.98 ± 0.14
GACAAGCAAUAUUACGGUUG | -2.3 ± 0.087 | -1.15 ± 0.11
GACAAGCAAUAUUACGUCAA | -2.87 ± 0.15 | -1.95 ± 0.1
GACAAGCAAUAUUACGUCUG | -3.26 ± 0.16 | -2.89 ± 0.15
GACAAGCAAUAUUACGUGAA | -1.81 ± 0.076 | -1.11 ± 0.089
GACAAGCAAUAUUACGUUCA | -1.21 ± 0.074 | -0.263 ± 0.072
GACAAGCAAUAUUACGUUCU | -2.9 ± 0.13 | -1.45 ± 0.12
GACAAGCAAUAUUACGUUUC | -4.22 ± 0.19 | -2.25 ± 0.16
GACCAGCAAUAUUACGAGGA | -1.04 ± 0.12 | -0.408 ± 0.11
GACCAGCAAUAUUACGCAAU | -0.846 ± 0.062 | -0.343 ± 0.077
GACCAGCAAUAUUACGCAGA | -1.57 ± 0.11 | -0.378 ± 0.093
